Test results from patent publication US20240124553A1.

Tests used:
Experiment in all cases: flow cytometry, transfected 293T cells
[1] = target: CHIKV E2-E1 envelope glycoproteins (strain S27), E2 mutant G114A (chikungunya virus strain S27) (UniProt Q8JUX5)
[2] = target: CHIKV E2-E1 envelope glycoproteins (strain S27), E2 mutant R86A (chikungunya virus strain S27) (UniProt Q8JUX5)
[3] = target: CHIKV E2-E1 envelope glycoproteins (strain S27), E2 mutant R104A (chikungunya virus strain S27) (UniProt Q8JUX5)
[4] = target: CHIKV E2-E1 envelope glycoproteins (strain S27), E2 mutant F100A (chikungunya virus strain S27) (UniProt Q8JUX5)
[5] = target: CHIKV E2-E1 envelope glycoproteins (strain S27), E2 mutant G108A (chikungunya virus strain S27) (UniProt Q8JUX5)
[6] = target: CHIKV E2-E1 envelope glycoproteins (strain S27), E2 mutant N39A (chikungunya virus strain S27) (UniProt Q8JUX5)
[7] = target: CHIKV E2-E1 envelope glycoproteins (strain S27), E2 mutant L67A (chikungunya virus strain S27) (UniProt Q8JUX5)
[8] = target: CHIKV E2-E1 envelope glycoproteins (strain S27), E2 mutant M97A (chikungunya virus strain S27) (UniProt Q8JUX5)
[9] = target: CHIKV E2-E1 envelope glycoproteins (strain S27), E2 mutant H123A (chikungunya virus strain S27) (UniProt Q8JUX5)
[10] = target: CHIKV E2-E1 envelope glycoproteins (strain S27), E2 mutant F84A (chikungunya virus strain S27) (UniProt Q8JUX5)
[11] = target: CHIKV E2-E1 envelope glycoproteins (strain S27), E2 mutant I121A (chikungunya virus strain S27) (UniProt Q8JUX5)
[12] = target: CHIKV E2-E1 envelope glycoproteins (strain S27), E2 mutant G44A (chikungunya virus strain S27) (UniProt Q8JUX5)
[13] = target: CHIKV E2-E1 envelope glycoproteins (strain S27), E2 mutant G57A (chikungunya virus strain S27) (UniProt Q8JUX5)
[14] = target: CHIKV E2-E1 envelope glycoproteins (strain S27), E2 mutant W64A (chikungunya virus strain S27) (UniProt Q8JUX5)
[15] = target: CHIKV E2-E1 envelope glycoproteins (strain S27), E2 mutant R80A (chikungunya virus strain S27) (UniProt Q8JUX5)
[16] = target: CHIKV E2-E1 envelope glycoproteins (strain S27), E2 mutant C91A (chikungunya virus strain S27) (UniProt Q8JUX5)
[17] = target: CHIKV E2-E1 envelope glycoproteins (strain S27), E2 mutant D132A (chikungunya virus strain S27) (UniProt Q8JUX5)
[18] = target: CHIKV E2-E1 envelope glycoproteins (strain S27), E2 mutant G98A (chikungunya virus strain S27) (UniProt Q8JUX5)
[19] = target: CHIKV E2-E1 envelope glycoproteins (strain S27), E2 mutant S88A (chikungunya virus strain S27) (UniProt Q8JUX5)
[20] = target: CHIKV E2-E1 envelope glycoproteins (strain S27), E2 mutant V32A (chikungunya virus strain S27) (UniProt Q8JUX5)
[21] = target: CHIKV E2-E1 envelope glycoproteins (strain S27), E2 mutant S118A (chikungunya virus strain S27) (UniProt Q8JUX5)
[22] = target: CHIKV E2-E1 envelope glycoproteins (strain S27), E2 mutant L111A (chikungunya virus strain S27) (UniProt Q8JUX5)
[23] = target: CHIKV E2-E1 envelope glycoproteins (strain S27), E2 mutant E40A (chikungunya virus strain S27) (UniProt Q8JUX5)
[24] = target: CHIKV E2-E1 envelope glycoproteins (strain S27), E2 mutant P90A (chikungunya virus strain S27) (UniProt Q8JUX5)
[25] = target: CHIKV E2-E1 envelope glycoproteins (strain S27), E2 mutant F129A (chikungunya virus strain S27) (UniProt Q8JUX5)
[26] = target: CHIKV E2-E1 envelope glycoproteins (strain S27), E2 mutant T96A (chikungunya virus strain S27) (UniProt Q8JUX5)
[27] = target: CHIKV E2-E1 envelope glycoproteins (strain S27), E2 mutant H62A (chikungunya virus strain S27) (UniProt Q8JUX5)
[28] = target: CHIKV E2-E1 envelope glycoproteins (strain S27), E2 mutant R38A (chikungunya virus strain S27) (UniProt Q8JUX5)
[29] = target: CHIKV E2-E1 envelope glycoproteins (strain S27), E2 mutant R36A (chikungunya virus strain S27) (UniProt Q8JUX5)
[30] = target: CHIKV E2-E1 envelope glycoproteins (strain S27), E2 mutant P106A (chikungunya virus strain S27) (UniProt Q8JUX5)
[31] = target: CHIKV E2-E1 envelope glycoproteins (strain S27), E2 mutant T45A (chikungunya virus strain S27) (UniProt Q8JUX5)
[32] = target: CHIKV E2-E1 envelope glycoproteins (strain S27), E2 mutant T58A (chikungunya virus strain S27) (UniProt Q8JUX5)
[33] = target: CHIKV E2-E1 envelope glycoproteins (strain S27), E2 mutant T65A (chikungunya virus strain S27) (UniProt Q8JUX5)

Substance | Binding Reactivity (% WT) [1] [% WT] | Binding Reactivity (% WT) [2] [% WT] | Binding Reactivity (% WT) [3] [% WT] | Binding Reactivity (% WT) [4] [% WT] | Binding Reactivity (% WT) [5] [% WT] | Binding Reactivity (% WT) [6] [% WT] | Binding Reactivity (% WT) [7] [% WT] | Binding Reactivity (% WT) [8] [% WT] | Binding Reactivity (% WT) [9] [% WT] | Binding Reactivity (% WT) [10] [% WT] | Binding Reactivity (% WT) [11] [% WT] | Binding Reactivity (% WT) [12] [% WT] | Binding Reactivity (% WT) [13] [% WT] | Binding Reactivity (% WT) [14] [% WT] | Binding Reactivity (% WT) [15] [% WT] | Binding Reactivity (% WT) [16] [% WT] | Binding Reactivity (% WT) [17] [% WT] | Binding Reactivity (% WT) [18] [% WT] | Binding Reactivity (% WT) [19] [% WT] | Binding Reactivity (% WT) [20] [% WT] | also measured
CHIKV mAb IM-CKV063 (antibody) | 58.4 | 127 | 75.7 | 33.6 | 59 | 120 | 62.1 | 69.9 | 44.2 | 61.7 | 109 | 68.2 | 96.5 | 69.1 | 86.3 | 1.5 | 116 | 99.9 | 89.5 | 44.1 | Binding Reactivity (% WT) [21]: 93.1 % WT; Binding Reactivity (% WT) [22]: 20.3 % WT; Binding Reactivity (% WT) [23]: 106 % WT; Binding Reactivity (% WT) [24]: 95.3 % WT; Binding Reactivity (% WT) [25]: 3.9 % WT; Binding Reactivity (% WT) [26]: 111 % WT; Binding Reactivity (% WT) [27]: 79.6 % WT; Binding Reactivity (% WT) [28]: 94.7 % WT; Binding Reactivity (% WT) [29]: 76.5 % WT; Binding Reactivity (% WT) [30]: 94.3 % WT; Binding Reactivity (% WT) [31]: 62.1 % WT; Binding Reactivity (% WT) [32]: 88.7 % WT; Binding Reactivity (% WT) [33]: 70.1 % WT
CHIKV mAb C9 (antibody) | 67.5 | 121 | 91.6 | 34.2 | 71.9 | 108 | 60.9 | 76.3 | 53.6 | 76.2 | 96.7 | 72.5 | 109 | 60.6 | 68.8 | 0.6 | 94.4 | 102 | 122 | 44 | Binding Reactivity (% WT) [21]: 97.4 % WT; Binding Reactivity (% WT) [22]: 23.2 % WT; Binding Reactivity (% WT) [23]: 107 % WT; Binding Reactivity (% WT) [24]: 100 % WT; Binding Reactivity (% WT) [25]: 6.7 % WT; Binding Reactivity (% WT) [26]: 99.2 % WT; Binding Reactivity (% WT) [27]: 93.1 % WT; Binding Reactivity (% WT) [28]: 86.3 % WT; Binding Reactivity (% WT) [29]: 75.4 % WT; Binding Reactivity (% WT) [30]: 88.9 % WT; Binding Reactivity (% WT) [31]: 71.7 % WT; Binding Reactivity (% WT) [32]: 98.6 % WT; Binding Reactivity (% WT) [33]: 71.1 % WT
